Experiments:
[1] = target: SARS-CoV-2 spike glycoprotein receptor-binding domain (SARS-CoV-2, UniProt P0DTC2 319-541); assay: BLI
[2] = target: SARS-CoV-2 spike glycoprotein S1 subunit (SARS-CoV-2, UniProt P0DTC2 14-685); assay: BLI

B1: angiotensin-converting enzyme 2 (ACE2) protein, purified (receptor)
chain: QSTIEEQAKTFLDKFNHEAEDLFYQSSLASWNYNTNITEENVQNMNNAGEKWSAFLKEQSTLAQMYPLQEIQNLTVKLQLQALQQNGSSVLSEDKSKRLNTILNTMSTIYSTGKVCNPNNPQECLLLDPGLNEIMEKSLDYNERLWAWEGWRSEVGKQLRPLYEEYVVLKNEMARANHYKDYGDYWRGNYEVNGVDGYDYNRDQLIEDVERTFEEIKPLYEHLHAYVRAKLMNAYPSYISPTGCLPAHLLGDMWGRFWTNLYSLTVPFGQKPNIDVTDAMVNQAWNAQRIFKEAEKFFVSVGLPNMTQGFWENSMLTDPGNVQKVVCHPTAWDLGKGDFRIIMCTKVTMDDFLTAHHEMGHIQYDMAYAAQPFLLRNGANEGFHEAVGEIMSLSAATPKHLKSIGLLSPDFQEDNETEINFLLKQALTIVGTLPFTYMLEKWRWMVFKGEIPKDQWMKKWWEMKREIVGVVEPVPHDETYCDPASLFHVSNDYSFIRYYTRTLYQFQFQEALCQAAKHEGPLHKCDISNSTEAGQKLLNMLKLGKSEPWTLALENVVGAKNMNVRPLLNYFEPLFTWLKDQNKNSFVGWSTDWSPYADQSIKVRISLKSALGDKAYEWNDNEMYLFRSSVAYAMRTYFLEIKHQTILFGEEDVRVADLKPRISFNFYVTAPKNVSDIIPRTEVEEAIRISRSRINDAFRLNDNSLEFLGIQTTLAPPYQSPVT
B1 was tested, and the Kd [1] was 149 nM and the Kd [2] was 146 nM.

Source: article PMC7486399 (2020)
